Experimental data: patent US20130116185A1, “PHOSPHATIDYLINOSITOL 3-KINASES ACTIVITY REGULATOR INCLUDING THE FIFTH ZINC FINGER DOMAIN OF FOG2” (SNU R&DB FOUNDATION, priority 2010, published 2013)

B1: FOG2-wt: The wild type of FOG2; full-length FOG2 cDNA cloned into the pCK-flag vector and overexpressed (protein)
chain: MSRRKQSKPRQIKRPLEDAIEDEEEECPSEETDIISKGDFPLEESFSTEFGPENLSCEEVEYFCNKGDDEGIQETAESDGDTQSEKPGQPGVETDDWDGPGELEVFQKDGERKIQSRQQLPVGTTWGPFPGKMDLNNNSLKTKAQVPMVLTAGPKWLLDVTWQGVEDNKNNCIVYSKGGQLWCTTTKAISEGEELIAFVVDFDSRLQAASQMTLTEGMYPARLLDSIQLLPQQAAMASILPTAIVNKDIFPCKSCGIWYRSERNLQAHLMYYCSGRQREAAPVSEENEDSAHQISSLCPFPQCTKSFSNARALEMHLNSHSGVKMEEFLPPGASLKCTVCSYTADSVINFHQHLFSHLTQAAFRCNHCHFGFQTQRELLQHQELHVPSGKLPRESDMEHSPSATEDSLQPATDLLTRSELPQSQKAMQTKDASSDTELDKCEKKTQLFLTNQRPEIQPTTNKQSFSYTKIKSEPSSPRLASSPVQPNIGPSFPVGPFLSQFSFPQDITMVPQASEILAKMSELVHRRLRHGSSSYPPVIYSPLMPKGATCFECNITFNNLDNYLVHKKHYCSSRWQQMAKSPEFPSVSEKMPEALSPNTGQTSINLLNPAAHSADPENPLLQTSCINSSTVLDLIGPNGKGHDKDFSTQTKKLSTSSNNDDKINGKPVDVKNPSVPLVDGESDPNKTTCEACNITFSRHETYMVHKQYYCATRHDPPLKRSASNKVPAMQRTMRTRKRRKMYEMCLPEQEQRPPLVQQRFLDVANLNNPCTSTQEPTEGLGECYHPRCDIFPGIVSKHLETSLTINKCVPVSKCDTTHSSVSCLEMDVPIDLSKKCLSQSERTTTSPKRLLDYHECTVCKISFNKVENYLAHKQNFCPVTAHQRNDLGQLDGKVFPNPESERNSPDVSYERSIIKCEKNGNLKQPSPNGNLFSSHLATLQGLKVFSEAAQLIATKEENRHLFLPQCLYPGAIKKAKGADQLSPYYGIKPSDYISGSLVIHNTDIEQSRNAENESPKGQASSNGCAALKKDSLPLLPKNRGMVIVNGGLKQDERPAANPQQENISQNPQHEDDHKSPSWISENPLAANENVSPGIPSAEEQLSSIAKGVNGSSQAPTSGKYCRLCDIQFNNLSNFITHKKFYCSSHAAEHVK
modifications: left off: small tags and cut ends
notes: The wild type of FOG2; full-length FOG2 cDNA cloned into the pCK-flag vector and overexpressed

Key:
Format in all cases: cell-based
MDA MB 231 cells [1] = test: Cell migration, modified Boyden chamber method; conditions: 18 hr migration
Protocol: MDA MB 231 cells were transfected with pCK-flag (control), FOG2-wt (wild type) and FOG2 mutants having modified zinc finger domain (FOG2-ZF-5-m and FOG2-ZF-6-m). The cell migration was then analyzed using the modified Boyden chamber method (Albini A et al., Cancer Res 1987 47:3239-45). Following the transfection for 24 hr, MDA MB 231 cells (1×10^5) were suspended in a serum-free medium and seeded in triplicate in the upper part of BD chamber ([…] pore size). The lower part was filled with the serum-free medium. Following the incubation at 37° C. for 18 hr, non-migrating cells positioned at the upper surface of filters were cleaned with a cotton swab. The migrating cells passing through the lower surface of filters were fixed with 70% ethanol and treated with the Giemsa staining solution for 50 min. Then, the cells were rinsed with water and observed under a microscope. The cell migration rate was determined by counting the number of cells present in randomly-selected six sections and the migration range was expressed as the average number of cells per a microscopic field.
MDA MB 231 cells were incubated with 4 μM Mock (control, DMSO), 4 μM ZF-5-wt-24, 4 μM ZF-5-m-24, 4 μM ZF-5-wt-20 or 4 μM ZF-3-wt-21. After treatment, the cell migration was analyzed using the modified Boyden chamber method (Albini A et al., Cancer Res 1987 47:3239-45). After 2 days of treatment, MDA MB 231 cells (1×10^5) were suspended in the serum free medium and seeded in triplicate in the upper part of BD chamber ([…] pore size). The lower part was filled with the serum free medium. Following the incubation at 37° C. for 18 hr, non-migrating cells positioned at the upper surface of filters were cleaned with the cotton swab. The migrating cells passing through the lower side surface of filters were fixed with 70% ethanol and stained using the Giemsa stain method. The cell migration rate was determined by counting the number of cells present in randomly-selected six sections and the migration range was expressed as the average number of cells per a microscopic field.

PI3K [2] = molecular target: T1, PI3K (Homo sapiens, UniProt P27986); test: PI3K activity in MDA MB 231 cells incubated with zinc finger domain peptides; design: The cell lysates were immunoprecipitated with p85α (sc-1637, Santa Cruz) and Protein G-Sepharose beads; endogenous in cells; conditions: synthesized peptides, FIG. 5
T1 sequence (P27986 whole entry, the tested form may be a part): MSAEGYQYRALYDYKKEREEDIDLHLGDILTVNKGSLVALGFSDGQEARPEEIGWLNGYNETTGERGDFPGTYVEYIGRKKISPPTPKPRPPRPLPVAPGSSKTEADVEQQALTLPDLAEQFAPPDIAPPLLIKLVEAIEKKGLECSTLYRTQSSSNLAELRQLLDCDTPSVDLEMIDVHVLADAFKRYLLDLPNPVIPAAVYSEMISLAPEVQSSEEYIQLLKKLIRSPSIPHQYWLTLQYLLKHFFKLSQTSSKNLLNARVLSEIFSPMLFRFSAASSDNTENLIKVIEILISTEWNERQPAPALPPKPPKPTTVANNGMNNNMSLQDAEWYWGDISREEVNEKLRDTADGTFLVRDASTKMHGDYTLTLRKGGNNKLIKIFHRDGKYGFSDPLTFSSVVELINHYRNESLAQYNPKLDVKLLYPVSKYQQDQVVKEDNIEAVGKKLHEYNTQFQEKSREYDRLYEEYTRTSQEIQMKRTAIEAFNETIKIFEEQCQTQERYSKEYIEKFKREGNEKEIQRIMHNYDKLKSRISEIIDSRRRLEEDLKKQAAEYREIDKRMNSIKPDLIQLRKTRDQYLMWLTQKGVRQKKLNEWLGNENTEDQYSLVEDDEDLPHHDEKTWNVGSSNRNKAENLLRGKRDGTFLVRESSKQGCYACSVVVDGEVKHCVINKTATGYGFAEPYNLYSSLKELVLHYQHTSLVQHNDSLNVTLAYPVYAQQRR
Protocol: (§1) For measurement of PI3K activity, 10 μl of sonicated PIP2 (1 μg/μl, Calbiochem), 10 μl of 100 mM MgCl2 and 1 μl of [-^32P]ATP (500 μCi/ml) were added to the kinase buffer (10 mM Tris-HCl (pH 7.4), 150 mM NaCl, 1 mM Na3VO4, 10 mM ZnCl2) and incubated at 37° C. for 30 min. After incubation, 20 μl of 6 N HCl was added to stop the reaction and PIP2 was extracted by treatment with 200 μl of methanol:chloroform (1:1) solution. The amount of radioactively labeled PIP2 in the extract was measured using a scintillator counter.
For peptide treatment, cells were trypsinized to detach them from a culture dish and their aliquot (2×10^5 cells) was incubated with 4 μM peptides in 100 mm dishes. The control was incubated with Mock (DMSO).

MCF 7 = test: Apoptosis by FACS analysis in MCF7 cells; conditions: synthesized peptides, FIG. 7D
Excerpt: FIG. 7D is a graph showing the apoptotic effect by synthesized zinc finger domain peptides of FOG2 in MCF7 cells according to FACS analysis;

PI3K [3] = molecular target: T1, PI3K; test: IGF-1-induced PI3K activation in Hep3B cells incubated with peptides; design: The cell lysates were immunoprecipitated with p85α (sc-1637, Santa Cruz) and Protein G-Sepharose beads; endogenous in cells; host or cells: Hep3B; conditions: 4 μM peptides, 48 hr, FIG. 2C
Protocol: as §1
In addition, Hep3B liver cancer cells were incubated with 4 μM peptides for 48 hr and the PI3K activity was analyzed.

MDA MB 231 cells [4] = test: Apoptosis by FACS analysis (propidium iodide) in MDA MB 231 cells; conditions: for number of apoptotic cells: transfected with 1 μg FOG2 fragment, 2 days, FIG. 7A
Protocol: PI3K inactivation has been reported to cause cancer cell apoptosis, and FOG2 is known to inhibit the PI3K activity. To test whether PI3K inactivation by overexpressing FOG2 induces apoptosis, MDA MB 231 cells overexpressed FOG2 were analyzed with FACS.
MDA MB 231 cells were incubated with Full-FOG2[1-1151], FOG2[1-412], FOG2[413-789] or FOG2[802-1151]. The cells (5×10^4) were seeded in a 12-well plate and transfected with 1 μg of Full-FOG2[1-1151], FOG2[1-412], FOG2[413-789] or FOG2[802-1151] using Lipofectamine 2000. The cells were incubated at 37° C. for 2 days and subject to FACS analysis.
The cells were incubated with FOG2 fragments and fixed with 70% ethanol for 16 hr. The fixed cells were stained using RNase (5 mg/ml) and propidium iodide ([…]). The amount of DNA in stained cells was analyzed with Cell Quest program of FACS caliber (Becton Dickinson).

Hep3B cells = test: Apoptosis by FACS analysis in Hep3B cells; conditions: synthesized peptides, 48 hr of treatment, FIG. 4B
Protocol: PI3K inactivation is known to cause cancer cell apoptosis, and FOG2 is known to inhibit PI3K activity. To test whether PI3K inactivation by overexpressing FOG2 induces apoptosis, Hep3B cells treated with the peptide synthesized in <Experiment 3> were analyzed with FACS.

HCT116 cells = test: Apoptosis by FACS analysis in HCT116 cells; conditions: 2 days after transfection, FIG. 4A
Protocol: PI3K inactivation is known to cause cancer cell apoptosis, and FOG2 is known to inhibit PI3K activity. To test whether PI3K inactivation by overexpressing FOG2 induces apoptosis, HCT116 cells transfected with pCK-flag (control), FOG2-wt (wild type) and FOG2 mutants (FOG2-ZF-5-m and FOG2-ZF-6-m) were analyzed with FACS.

MDA MB 231 cells [5] = test: Cell proliferation MTT assay; conditions: transfected with 100 ng DNA, 3 days post-transfection, FIG. 6A
Protocol: Because the PI3K activation is critical in cell growth, the cell proliferation was analyzed to investigate the inhibitory effect of the FOG2 zinc finger domain using the MTT assay.
MDA MB 231 cells were seeded in a 96-well plate, and transfected with 100 ng DNA of pCKflag, FOG2-wt, FOG2-ZF-5-m or FOG2-ZF-6-m using Lipofectamine 2000. On 3 days post-transfection, the MTT assay was performed.
MDA MB 231 cells (2×10^3 cells) were seeded in a 96-well plate and treated with 4 μM each peptide for 3 days. After the treatment, 50 μl of MTT solution (2 mg/ml) was added to each well, incubated at 37° C. for 1 hr. Then, 150 μl of DMSO was added to each well and the absorbance value of each well was measured at 590 nm using a microplate reader.

Akt = Akt phosphorylation by Western blot in transfected Hep3B cells after IGF-1 stimulation; conditions: FIG. 1D
Protocol: Hep3B cells were transfected with FOG2 mutants having modified zinc finger domain to measure the effect on the Akt signaling by FOG2-ZF-5m. The Akt activity was measured by analyzed Akt phosphorylation.
Hep3B cells were transfected with pCK-flag (control), FOG2-wt (wild type) and FOG2 mutants having modified zinc finger domain (FOG2-ZF-5-m and FOG2-ZF-6-m) and stimulated with IGF-1. The expression of Akt (Cell signaling Technology, USA), pAkt (Cell signaling Technology, USA) and GAPDH(Santa cruz, USA) were measured by Western blot analysis.

PI3K [6] = molecular target: T1, PI3K; test: PI3K activity in Hep3B cells transfected with FOG2 constructs (p85α immunoprecipitation, 32P-ATP/PIP2 kinase assay); design: The cell lysates were immunoprecipitated with p85α (sc-1637, Santa Cruz) and Protein G-Sepharose beads; endogenous in cells; host or cells: Hep3B; conditions: 100 ng/ml IGF-1 30 min, FIG. 1C
Protocol: To investigate the inhibitory effect to PI3K activity by FOG2 zinc finger domain, PI3K activity was analyzed using FOG2 mutants having modified zinc finger domain. Specially, it is known that IGF signaling pathway plays an important role in cancer and the increased IGF-1 level enhances the risk of various cancers in many researches.
Accordingly, the PI3K activity was increased by incubating Hep3B cells with IGF-1 and then measured when the cells were incubated with peptides having mutated FOG2 zinc finger domain.
After Hep3B cells incubation, 100 ng/ml IGF-1 (Insulin like growth factor-1) was added to the cells and incubated for 30 min.
Hep3B cells were transfected with pCK-flag (control), FOG2-wt (wild type) and FOG2 mutants having modified zinc finger domain (FOG2-ZF-5-m and FOG2-ZF-6-m). Two days later, the lysates were obtained using a lysis buffer (20 mM Hepes (pH7.4), 100 mM NaCl, 20 mM KAc, 10 mM MgCl2, 10 mM ZnCl2, 1 mM Na3VO4, 1% NPO4). The cell lysates were immunoprecipitated with p85α (sc-1637, Santa Cruz) and Protein G-Sepharose beads using the same method above. After binding to beads, the lysates were washed 2 times with the lysis buffer and one time with the wash buffer (0.1 M Tris-HCl (pH 7.4), 5 mM LiCl, and 0.1 mM Na3VO4).
as §1

| Molecule | reduction of cell migration (MDA MB 231 cells [1]; 4 μM peptide, 2 days of treatment, FIG. 3B) | PI3K activity (PI3K [2]) | apoptosis (MCF 7) | IGF-1-induced PI3K activation (PI3K [3]) | apoptosis (MDA MB 231 cells [4]; synthesized peptides, FIG. 7C) | apoptosis (Hep3B cells) | apoptosis (HCT116 cells) | reduction of cell migration (MDA MB 231 cells [1]; transfected 24 hr, FIG. 3A) | number of apoptotic cells (MDA MB 231 cells [4]; listed as FOG2[1-1151]) | number of apoptotic cells (MDA MB 231 cells [4]; listed as Full-FOG2[1-1151]) | reduction of cell proliferation (MDA MB 231 cells [5]) | Akt phosphorylation (Akt) | Akt phosphorylation (Akt; listed as FOG2-ZF-wt) | PI3K activation by IGF-1 stimulation (PI3K [6]) |
| --- | --- | --- | --- | --- | --- | --- | --- | --- | --- | --- | --- | --- | --- | --- |
| ZF-5-wt-20: The peptide comprising a portion of the fifth zinc finger domain of FOG2 (20 amino acids) (CFECNITFNNLDNYLVHKKH) | reduce the cell migration | decrease PI3K activity | promoted apoptosis | inhibited | promoted apoptosis | induced apoptosis | – | – | – | – | – | – | – | – |
| B1 | – | – | – | – | – | – | increased apoptosis | approximately 80% | reduces the apoptosis | increased | about 40% | decreased | inhibited | inhibited |
